± gives the standard error. For part of these data: This sample holds only a part of the variants without activity.
B1: glmS ribozyme (parent)
chain: AUAAAAGCGCCAGAACUACAGAAAUGUAGUUGACGAGGAGGAGGUUUAUCGAAUUUUCGGCGGAUGCCUCCAAA

Tests used:
Conditions in all cases: with glucosamine-6-phosphate
glucosamine-6-phosphate [1] = variants of: B1; assay: kcat; higher = faster cleavage; RNA array
Outline: (§1)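 Using a hybridised Cy3 probe at 37 °C, barcoded ribozyme variants transcribed in situ by E. coli RNA polymerase on sequenced MiSeq chips were monitored across tiles imaged over ~14 h. The flow contained glucosamine-6-phosphate from 40 μM to 10 mM in HEPES/KCl/Mg(OAc)2 buffer. Signals were normalised to baseline and to non-cleaving reference variants before per-tile medians were fit to one- or two-exponential decays to yield kobs. Weighted Michaelis–Menten fits across concentrations gave kcat and KM.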

glucosamine-6-phosphate [2] = variants of: B1; assay: KM; higher = weaker cofactor use; RNA array
Outline: as §1

glucosamine-6-phosphate [3] = variants of: B1; assay: self-cleavage kobs at 640 uM GlcN6P; higher = faster cleavage; RNA array
Outline: as §1

glucosamine-6-phosphate [4] = variants of: B1; assay: self-cleavage kobs at 2500 uM GlcN6P; higher = faster cleavage; RNA array
Outline: as §1

glucosamine-6-phosphate [5] = variants of: B1; assay: self-cleavage kobs at 10000 uM GlcN6P; higher = faster cleavage; RNA array
Outline: as §1

glucosamine-6-phosphate [6] = variants of: B1; assay: self-cleavage kobs at 40 uM GlcN6P; higher = faster cleavage; RNA array
Outline: as §1

glucosamine-6-phosphate [7] = variants of: B1; assay: self-cleavage kobs at 160 uM GlcN6P; higher = faster cleavage; RNA array
Outline: as §1

Variant | kcat (glucosamine-6-phosphate [1]) [s⁻¹] | KM (glucosamine-6-phosphate [2]) [µM] | self-cleavage kobs at 640 uM GlcN6P (glucosamine-6-phosphate [3]) [s⁻¹] | self-cleavage kobs at 2500 uM GlcN6P (glucosamine-6-phosphate [4]) [s⁻¹] | self-cleavage kobs at 10000 uM GlcN6P (glucosamine-6-phosphate [5]) [s⁻¹] | self-cleavage kobs at 40 uM GlcN6P (glucosamine-6-phosphate [6]) [s⁻¹] | self-cleavage kobs at 160 uM GlcN6P (glucosamine-6-phosphate [7]) [s⁻¹]
AUAAAGGCGCCAGAACUACAGAAAUGUAGUUGACGAGGAGGAGGUUUAUCGAAUUUUCGGCGGAUACCUCCAAA | 0.000421 ± 2.1e-05 | 2650 ± 210 | 8.05e-05 ± 1.4e-05 | 0.000217 ± 5.1e-05 | 0.000325 ± 7.5e-05 |  | 
AUAAAGGCGACAGAACUACAGAAAUGUAGUUGACGAGGAGGAGGUUUAUCGAAUUUUCGGCGGAUGCCUCCAAA | < 1e-05 |  |  |  | < 1e-05 | < 1e-05 | 
AUAAAGGCGCCAGAACUACAGAAAUGUAGUUGACGAGGUGGAGGUUUAUCGAAUUUUCGGCGGAUGCCUCCAAA | 0.000276 ± 7.5e-06 | 1490 ± 84 | 8.14e-05 ± 1.2e-05 | 0.000176 ± 2.3e-05 | 0.000239 ± 3.2e-05 |  | 2.95e-05 ± 1.1e-05
AUAAACGCGCCAGAACUACAGAAAUGUAGUUGACGAGGAGGAGGUUUAUCGAAUUUUCGGCGGAGGCCUCCAAA | 2.87e-05 ± 1.5e-06 | 342 ± 150 |  |  | 2.71e-05 ± 1.1e-05 |  | 
AUAAACGCGCCAGAACUACAGAAAUGUAGUUGACGAGGAGGAGGGUUAUCGAAUUUUCGGCGGAUGCCUCCAAA | < 1e-05 |  |  |  |  |  | 
AUAAACGCGCCAGAACUACAGAAAUGUAGUUGACGAGGAGGAGGUUAAUCGAAUUUUCGGCGGAUGCCUCCAAA | 0.0001 ± 5.6e-06 | 6300 ± 770 |  |  | 6.15e-05 ± 1.4e-05 |  | 
AUAAACGCGCCAGAACUACAGAAAUGUAGUUGACGAGGAGGAGGUUGAUCGAAUUUUCGGCGGAUGCCUCCAAA | 1.58e-05 ± 2.8e-06 |  |  |  |  |  | 
AUAAACGCGCCAGAACUACAGAAAUGUAGUUGACGAGGAGGAGGUUCAUCGAAUUUUCGGCGGAUGCCUCCAAA | 1.02e-05 ± 2.4e-07 | 526 ± 77 |  |  |  |  | < 1e-05
AUAAAGGCGCCAGAACUACAGAAAUGUAGUUGACGAUGAGGAGGUUUAUCGAAUUUUCGGCGGAUGCCUCCAAA | < 1e-05 |  |  |  | < 1e-05 | < 1e-05 | < 1e-05
AAAAAAGCGCCAGAACUACAGAAAUGUAUUUGACGAGGAGGAGGUUUAUCGAAUUUUCGGCGGAUGCCUCCAAA | 0.00852 ± 0.0033 |  | 0.00137 ± 0.00032 |  | 0.00749 ± 0.0017 | 0.000181 ± 3.8e-05 | 0.000569 ± 0.00018
AUAAACGCGCCAGAACUACAGAAAUGUAGUUGACGAGGAGGAGGUUUAUCGAACUUUCGGCGGAUGCCUCCAAA | 0.000106 ± 1.8e-05 | 2090 ± 1000 |  | 6.36e-05 ± 1e-05 | 8.4e-05 ± 1.4e-05 |  | 
AUAAAGGCGCCAGCACUACAGAAAUGUAGUUGACGAGGAGGAGGUUUAUCGAAGUUUCGGCGGAUGCCUCCAAA | 3.49e-05 ± 4.1e-06 |  |  | 3.32e-05 ± 1.2e-05 | 3.47e-05 ± 1.5e-05 |  | 
AUAAACGCGCCAGAACUACAGAAAUGUAGUUGACGAUGAGGAGGUUUAUCGAAUUUUCGGCGGAUGCCUCCAAA | < 1e-05 |  |  |  |  | < 1e-05 | 
AUAAAGGCGCCAGAACUACAGAAAUGUAGUUGACGAGGAGGAGGUUUAUCGAAUUUUCGGCGGAUGCCUCUAAA | 6.03e-05 ± 2.1e-06 | 1890 ± 260 |  | 3.33e-05 ± 8e-06 | 5.1e-05 ± 6.3e-06 |  | 
AUAAACGCGCCCGAACUACAGAAAUGUAGUUGACGAGGAGGAGGUUUAUCGAAUUUUCGGCGGAUGCCUCCAAA | 4.52e-05 ± 3.2e-06 | 1190 ± 370 |  | 2.86e-05 ± 7.1e-06 | 4.11e-05 ± 6.6e-06 |  | 
AUAAACGCGCCAGAAUUACAGAAAUGUAGUUGACGAGGAGGAGGUUUAUCGAAUUUUCGGCGGAUGCCUCCAAA | 0.000207 ± 4.9e-05 |  |  | 3.13e-05 ± 9e-06 | 8.88e-05 ± 1.1e-05 |  | 
GUAAAAGCGCCAGAACUACAGAAAUGUAGUUGACGAUGAGGAGGUUUAUCGAAUUUUCGGCGGAUGCCUCCAAA | 1.48e-05 ± 2.9e-06 |  | < 1e-05 |  |  |  | 
AUAAACGCGCCAGAACUACAGAAAUGUAGUUGAAGAAAAGGAGGUUUAUCGAAUUUUCGGCGUAUGCUUGCAAA | 1.43e-05 ± 4.9e-06 |  | < 1e-05 |  |  |  | 
AUAAAGGCGCCAGAACUACAGAAAUGUAGUUGACGAGGAGGAGGUUUAUCGAAUUUUCGGCGGAUGUCUCCAAA | 0.000111 ± 4.4e-05 |  |  |  | 8.08e-05 ± 7.3e-06 |  | 
AUAAACGCGCCAGAACUACAGAAAUGUAGUUGACGAGGAGGAGGUUUAUCGAAUUUUCGGCGGAUGACUCCAAA | 3.57e-05 ± 2.8e-07 | 1260 ± 54 |  |  | 3.18e-05 ± 9.1e-06 |  | 
AUAAACGCGCCAGAACUACAGAAAUGUAGUUGACGAGGAGGAGGUUUAUCGAAUUUUCGGCGGAUGUCUCCAAA | 2.53e-05 ± 7.4e-07 | 660 ± 160 |  |  | 2.36e-05 ± 7.4e-06 | < 1e-05 | < 1e-05
AUAAACGCGCCAGAACUACAGAAAUGUAGUUGACGAGGAGGAGGUUUAUCGAAUAUUCGGCGGAUGCCUCCAAA | 9.15e-05 ± 2.5e-05 |  |  | 7.01e-05 ± 1.6e-05 | 7.27e-05 ± 1.2e-05 |  | 
AUAAACGCGCCAGAACUACAGAAAUGUAGUUGACGAGGAGGAGGUUUAUCGAGUUUUCGGCGGAUGCCUCCAAA | 0.000117 ± 1e-05 | 3110 ± 770 | 3.04e-05 ± 1.3e-05 | 4.95e-05 ± 7.6e-06 | 8.97e-05 ± 7.3e-06 |  | 
AUAAACGCGCCAGACCUACAGAAAUGUAGUUGACGAGGAGGAGGUUUAUCGAAUUUUCGGCGGAUGCCUCCAAA | 3.27e-05 ± 1.8e-06 |  |  |  |  |  | 
AUAAACGCGCCAGAACUACAGAAAUGUAGUUGACGAGGAGGAGGUUUAUCGAAUUUUCGGCGGAUGCCACCAAA | 2.1e-05 ± 3.8e-06 |  |  |  |  |  | 

— the supplement of paper PMC7125110
